Data taken from US20130280298A1 (FOLIA BIOTECH, published 2013).

B1: FHEFWPT (peptide)
peptide: FHEFWPT
notes: also called ANP1
B2: PapMV HAV-ANP2 (designed binder)
chain: MASTPNIAFPAITQEQMSSIKVDPTSNLLPSQEQLKSVSTLMVAAKVPAASVTTVALELVNFCYDNGSSAYTTVTGPSSIPEISLAQLASIVKASGTSLRKFCRYFAPIIWNLRTDKMAPANWEASGYKPSAKFAAFDFFDGVENPAAMQPPSGLTRSPTQEERIANATNKQVHLFQAAAQDNNFASNSAFITKGQISGSTPTIQFLPPPETSKVWQIPHTRHHHHHH

Tests used:
[1] = target: T1, influenza A/WSN/33 (H1N1) NP protein (influenza virus A/WSN/33 (H1N1), UniProt P15682 1-498); assay: phage display panning (Ph.D.-7) on NP coated on MaxiSorp plates, 5 rounds
T1 construct: also called recombinant NP; rNP
T1 sequence (P15682 whole entry): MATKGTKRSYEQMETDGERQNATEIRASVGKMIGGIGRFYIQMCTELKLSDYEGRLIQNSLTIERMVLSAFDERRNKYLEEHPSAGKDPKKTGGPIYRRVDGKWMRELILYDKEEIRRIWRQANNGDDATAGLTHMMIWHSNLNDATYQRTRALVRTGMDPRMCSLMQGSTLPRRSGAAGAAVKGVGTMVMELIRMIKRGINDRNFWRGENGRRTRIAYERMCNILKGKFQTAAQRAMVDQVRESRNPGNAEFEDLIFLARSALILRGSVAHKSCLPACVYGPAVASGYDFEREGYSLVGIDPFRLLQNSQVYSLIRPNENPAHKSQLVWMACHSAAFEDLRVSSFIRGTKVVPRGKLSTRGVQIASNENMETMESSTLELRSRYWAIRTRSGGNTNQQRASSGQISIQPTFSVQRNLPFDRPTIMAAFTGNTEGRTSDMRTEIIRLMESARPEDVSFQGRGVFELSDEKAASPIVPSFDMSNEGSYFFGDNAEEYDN

[2] = target: T1, influenza A/WSN/33 (H1N1) NP protein

Binder	binding result [1]	fold increase of the avidity (OPD, nm) over HAV-ANP 1 and PapMV VLPs [2] [fold]	fold increase of the signal over PapMV HAV-ANP1 and PapMV VLPs [2] [fold]
B1	binds	–	–
B2	–	~5	5
